Biological target: T1, endogenous Vps11 (HOPS subunit) (rat, UniProt D3ZTB4 2-941)
T1 construct: whole, on cells; Endogenous protein detected in situ with an anti-Vps11 antibody; also called vacuolar protein sorting-associated protein 11 homolog
T1 sequence: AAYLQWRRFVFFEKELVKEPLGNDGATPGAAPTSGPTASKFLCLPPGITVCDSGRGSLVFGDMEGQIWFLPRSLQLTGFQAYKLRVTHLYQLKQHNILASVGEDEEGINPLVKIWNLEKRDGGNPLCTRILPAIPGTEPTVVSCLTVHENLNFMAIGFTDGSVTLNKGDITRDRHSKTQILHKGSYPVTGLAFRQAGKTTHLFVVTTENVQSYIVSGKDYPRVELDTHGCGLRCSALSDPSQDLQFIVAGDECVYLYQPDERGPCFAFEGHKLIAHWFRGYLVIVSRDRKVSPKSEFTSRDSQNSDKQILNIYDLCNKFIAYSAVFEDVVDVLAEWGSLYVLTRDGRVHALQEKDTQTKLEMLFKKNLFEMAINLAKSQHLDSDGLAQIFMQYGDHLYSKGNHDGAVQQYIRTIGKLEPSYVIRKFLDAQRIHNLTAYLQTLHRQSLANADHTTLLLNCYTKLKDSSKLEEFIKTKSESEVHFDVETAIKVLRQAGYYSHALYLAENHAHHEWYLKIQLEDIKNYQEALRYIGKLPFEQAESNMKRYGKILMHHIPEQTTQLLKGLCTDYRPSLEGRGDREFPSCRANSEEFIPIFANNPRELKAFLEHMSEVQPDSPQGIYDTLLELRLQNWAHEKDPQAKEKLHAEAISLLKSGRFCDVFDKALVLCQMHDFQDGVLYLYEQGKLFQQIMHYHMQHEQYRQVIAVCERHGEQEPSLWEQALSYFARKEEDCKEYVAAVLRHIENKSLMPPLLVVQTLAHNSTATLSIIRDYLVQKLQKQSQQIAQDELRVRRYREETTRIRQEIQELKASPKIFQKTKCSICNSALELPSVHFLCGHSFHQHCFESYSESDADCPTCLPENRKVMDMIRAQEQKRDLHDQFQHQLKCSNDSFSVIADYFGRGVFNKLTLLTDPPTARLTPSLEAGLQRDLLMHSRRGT
Experiment: proximity ligation assay (in situ co-IP) in transfected hepatic cells, baseline (OA) and 1 h post-EPA
Description: The A18-C3 cells were cultured in DMEM (Invitrogen) supplemented with fetal bovine serum (20%), penicillin (50 U/mL), streptomycin (50 μg/mL, Invitrogen) and Geneticin/G418 (500 μg/mL, Gibco) at 37° C. in 5% CO₂. Transfection was conducted when cells were 60-70% confluence. Appropriate plasmids were mixed with FuGENE HP extreme reagent (Roche Diagnostic), according to manufacturer's protocol, and incubated for 30 min. […] In silencing experiments, appropriate siRNAs were transfected into cells using the X-treme GENE siRNA regent (Roche Diagnostic).
One h post-EPA treatment, the cells were fixed, permeabilized and incubated with an anti-RFP antibody together with proper anti-Vps11, -Vps39, and -Vps41 antibodies. The proximity ligation was achieved using the Duolink secondary PLA probes (Olink AB) that detects substrate formation between the two antibodies as described previously³⁸.

B1: mCherry-tagged Arl8b^T34N (other)
chain: MLALISRLLDWFRSLFWKEEMELTLVGLQYSGKNTFVNVIASGQFSEDMIPTVGFNMRKVTKGNVTIKIWDIGGQPRFRSMWERYCRGVNAIVYMIDAADREKIEASRNELHNLLDKPQLQGIPVLVLGNKRDLPNALDEKQLIEKMNLSAIQDREICCYSISCKEKDNIDITLQWLIQHSKSRRS
notes: Fusion protein expressed by plasmid transfection inside McA-RH7777 (A18-C3) hepatic cells and detected in situ with an anti-RFP antibody; also called ^mCherryArl8b^T34N; RFP-tagged Arl8b^T34N; not shown: C-terminal mCherry tag and its RDP linker
B1: no binding.
